“And” between values parts separate entries of the source, which are not always exact repeats. Identical values can stand only once.
Experiments:
[1] = target: WspR from P. syringae DC3000 (full length) (P. syringae DC3000); test: crystal structure; unpublished data: crystal structure of the WspR homolog from P. syringae
[2] = target: the molecule itself; test: crystal structure; c-di-GMP-bound full-length WspR, 2.4 Å, space group C2, two molecules in the asymmetric unit; hanging drop, 0.1 M Tris-Cl pH 8.0, 2.9 M NaCl, 15% xylitol, 20 °C
[3] = target: the molecule itself; test: SEC; c-di-GMP-bound protein as purified, 0.24 mM; Superdex 200 10/300; 25 mM Tris-Cl pH 7.5, 100 mM NaCl, 1 mM DTT
[4] = target: the molecule itself; test: SEC-MALS; nucleotide-free mutants as purified, 4 mg/ml (approximately 0.1 mM); Shodex KW-803; 25 mM Tris-HCl pH 7.5, 100 mM NaCl, 1 mM DTT
[5] = target: the molecule itself; test: SEC-MALS; stalk mutants as purified (c-di-GMP bound), approximately 0.1 mM; Shodex KW-803; 25 mM Tris-Cl pH 7.5, 100 mM NaCl, 1 mM DTT
[6] = target: the molecule itself; test: SEC; nucleotide-free protein (wild type: PDE-treated, PDE and nucleotide removed; GGAAF as purified), 0.08-0.24 mM; Superdex 200 10/300; 25 mM Tris-Cl pH 7.5, 100 mM NaCl, 1 mM DTT; distribution depends on protein concentration
[7] = target: the molecule itself; test: SEC; unpublished data: lysates of E. coli expressing WspR^R242A or WspR^GGAAF, gel filtration

**Q.** Which stoichiometry N [1] does the source give for “WspR from P. syringae DC3000 (full length) (enzyme)” here?
**A.** The stoichiometry N was 4.

B1: WspR from P. aeruginosa, wild type (full length) (enzyme)
chain: MHNPHESKTDLGAPLDGAVMVLLVDDQAMIGEAVRRSLASEAGIDFHFCSDPQQAVAVANQIKPTVILQDLVMPGVDGLTLLAAYRGNPATRDIPIIVLSTKEEPTVKSAAFAAGANDYLVKLPDAIELVARIRYHSRSYIALQQRDEAYRALRESQQQLLETNLVLQRLMNSDGLTGLSNRRHFDEYLEMEWRRSLREQSQLSLLMIDVDYFKSYNDTFGHVAGDEALRQVAGAIREGCSRSSDLAARYGGEEFAMVLPGTSPGGARLLAEKVRRTVESLQISHDQPRPGSHLTVSIGVSTLVPGGGGQTFRVLIEMADQALYQAKNNGRNQVGLMEQPVPPAPAG
notes: the nucleotide-free form was made by treatment with the PDE SadR/RocR and repurification; The nucleotide state is told in each assay's format; also called WspR^wt; PA3702; source: E. coli BL21(DE3), purified (NiNTA, SEC); also E. coli BL21, in lysate; not shown: His6, C-terminal, kept
**Q.** Which “stoichiometry N” value [2] does the source give for B1 here?
**A.** Its value is 4.

**Q.** And the “stoichiometry N” value [3]?
**A.** The value was 2.

B2: WspR^R198A (I-site mutant of P. aeruginosa WspR) (enzyme)
chain: MHNPHESKTDLGAPLDGAVMVLLVDDQAMIGEAVRRSLASEAGIDFHFCSDPQQAVAVANQIKPTVILQDLVMPGVDGLTLLAAYRGNPATRDIPIIVLSTKEEPTVKSAAFAAGANDYLVKLPDAIELVARIRYHSRSYIALQQRDEAYRALRESQQQLLETNLVLQRLMNSDGLTGLSNRRHFDEYLEMEWRRSLAEQSQLSLLMIDVDYFKSYNDTFGHVAGDEALRQVAGAIREGCSRSSDLAARYGGEEFAMVLPGTSPGGARLLAEKVRRTVESLQISHDQPRPGSHLTVSIGVSTLVPGGGGQTFRVLIEMADQALYQAKNNGRNQVGLMEQPVPPAPAG
notes: WspR, P. aeruginosa PAO1, locus tag PA3702, with R198A; Purifies essentially nucleotide-free; source: E. coli BL21(DE3), purified (NiNTA, SEC)
**Q.** How did the “stoichiometry N” value [4] turn out when B2 was run?
**A.** The value was 2 and 4.

B3: WspR^L170D (stalk mutant of P. aeruginosa WspR) (enzyme)
chain: MHNPHESKTDLGAPLDGAVMVLLVDDQAMIGEAVRRSLASEAGIDFHFCSDPQQAVAVANQIKPTVILQDLVMPGVDGLTLLAAYRGNPATRDIPIIVLSTKEEPTVKSAAFAAGANDYLVKLPDAIELVARIRYHSRSYIALQQRDEAYRALRESQQQLLETNLVLQRDMNSDGLTGLSNRRHFDEYLEMEWRRSLREQSQLSLLMIDVDYFKSYNDTFGHVAGDEALRQVAGAIREGCSRSSDLAARYGGEEFAMVLPGTSPGGARLLAEKVRRTVESLQISHDQPRPGSHLTVSIGVSTLVPGGGGQTFRVLIEMADQALYQAKNNGRNQVGLMEQPVPPAPAG
notes: WspR, P. aeruginosa PAO1, locus tag PA3702, with L170D; source: E. coli, purified
**Q.** With B3 as the molecule, how does the “stoichiometry N” value [5] read?
**A.** The value was 2 and 4.

B4: WspR^GGAAF (catalytically dead mutant of P. aeruginosa WspR) (enzyme)
chain: MHNPHESKTDLGAPLDGAVMVLLVDDQAMIGEAVRRSLASEAGIDFHFCSDPQQAVAVANQIKPTVILQDLVMPGVDGLTLLAAYRGNPATRDIPIIVLSTKEEPTVKSAAFAAGANDYLVKLPDAIELVARIRYHSRSYIALQQRDEAYRALRESQQQLLETNLVLQRLMNSDGLTGLSNRRHFDEYLEMEWRRSLREQSQLSLLMIDVDYFKSYNDTFGHVAGDEALRQVAGAIREGCSRSSDLAARYGGAAFAMVLPGTSPGGARLLAEKVRRTVESLQISHDQPRPGSHLTVSIGVSTLVPGGGGQTFRVLIEMADQALYQAKNNGRNQVGLMEQPVPPAPAG
notes: WspR, P. aeruginosa PAO1, locus tag PA3702; the two central glutamates of the GGEEF motif (residues 251-255) replaced by alanines; Purifies nucleotide-free; source: E. coli BL21(DE3), purified (NiNTA, SEC); also E. coli BL21, in lysate; not shown: His6, C-terminal, kept
**Q.** With B4 as the molecule, how does the “stoichiometry N” value [6] read?
**A.** Its value is 4 and 2.

B5: WspR^R242A (I-site mutant of P. aeruginosa WspR) (enzyme)
chain: MHNPHESKTDLGAPLDGAVMVLLVDDQAMIGEAVRRSLASEAGIDFHFCSDPQQAVAVANQIKPTVILQDLVMPGVDGLTLLAAYRGNPATRDIPIIVLSTKEEPTVKSAAFAAGANDYLVKLPDAIELVARIRYHSRSYIALQQRDEAYRALRESQQQLLETNLVLQRLMNSDGLTGLSNRRHFDEYLEMEWRRSLREQSQLSLLMIDVDYFKSYNDTFGHVAGDEALRQVAGAIREGCSASSDLAARYGGEEFAMVLPGTSPGGARLLAEKVRRTVESLQISHDQPRPGSHLTVSIGVSTLVPGGGGQTFRVLIEMADQALYQAKNNGRNQVGLMEQPVPPAPAG
notes: WspR, P. aeruginosa PAO1, locus tag PA3702, with R242A; Purifies essentially nucleotide-free; source: E. coli BL21(DE3), purified (NiNTA, SEC); also E. coli BL21, in lysate; not shown: His6, C-terminal, kept
**Q.** For B5, which “stoichiometry N” value [4] is on record?
**A.** The value was 4.

**Q.** What about the “stoichiometry N” value [7] of the same molecule?
**A.** The value was 2.
